From PMC3766450 (Nature structural & molecular biology, 2013)

Target: vertebrate calmodulin (CaM) (UniProt P0DP23)
Assay: ITC

Which “stoichiometry N” value does the source give for LFPRAKSVSERLSILKGSRP [AQP0^CBD peptide L227A] here?
Its value is 1 peptide per CaM.

With LFPRLKSVSERASILKGSRP [AQP0^CBD peptide L234A] as the binder, how does the “stoichiometry N” value read?
Its value is 2 peptides per CaM.

With LFPRLKSVSERLSIAKGSRP [AQP0^CBD peptide L237A] as the binder, how does the “stoichiometry N” value read?
The value was 2 peptides per CaM.

Which “stoichiometry N” value does the source give for LFPRLKSASERLSILKGSRP [AQP0^CBD peptide V230A] here?
The value was 1 peptide per CaM.
